Paper PMC8463877 (2021)

Tests used:
[1] = biological target: T1, α-synuclein amyloid fibrils (unlabeled) (UniProt P37840 1-140); experiment: 7 °C
[2] = biological target: T1, α-synuclein amyloid fibrils (unlabeled); experiment: 10 °C
[3] = biological target: T1, α-synuclein amyloid fibrils (unlabeled); experiment: 17 °C
[4] = biological target: T1, α-synuclein amyloid fibrils (unlabeled); experiment: 30 °C
[5] = biological target: T1, α-synuclein amyloid fibrils (unlabeled); experiment: 37 °C

- Kd [1]: 45.3 µM
- Kd [2]: 12.3 µM
- Kd [3]: 6.1 µM
- Kd [4]: 0.0575 µM
- Kd [5]: < 0.0103 µM
B1: GFP-labeled αB-crystallin (αB-c-TEV site-GFP-His tag) (natural protein)
chain: MDIAIHHPWIRRPFFPFHSPSRLFDQFFGEHLLESDLFPTSTSLSPFYLRPPSFLRAPSWFDTGLSEMRLEKDRFSVNLDVKHFSPEELKVKVLGDVIEVHGKHEERQDEHGFISREFHRKYRIPADVDPLTITSSLSSDGVLTVNGPRKQVSGPERTIPITREEKPAVTAAPKK
